Results from article PMC2744139.

Molecular target: Cdc13 amino-terminus through the DBD (N) (S. cerevisiae)
Experiment: fluorescence polarisation

- Kd: 35 nM
Substance: Hsp82 (yeast Hsp90 molecular chaperone) (from UniProt P02829 1-709) (natural protein)
